Data taken from IntAct's records for PubMed 18067539.

B1: DNA-binding transcriptional repressor Mlc (Escherichia coli (strain K12)), P50456 (parent)
chain: MVAENQPGHIDQIKQTNAGAVYRLIDQLGPVSRIDLSRLAQLAPASITKIVREMLEAHLVQELEIKEAGNRGRPAVGLVVETEAWHYLSLRISRGEIFLALRDLSSKLVVEESQELALKDDLPLLDRIISHIDQFFIRHQKKLERLTSIAITLPGIIDTENGIVHRMPFYEDVKEMPLGEALEQHTGVPVYIQHDISAWTMAEALFGASRGARDVIQVVIDHNVGAGVITDGHLLHAGSSSLVEIGHTQVDPYGKRCYCGNHGCLETIASVDSILELAQLRLNQSMSSMLHGQPLTVDSLCQAALRGDLLAKDIITGVGAHVGRILAIMVNLFNPQKILIGSPLSKAADILFPVISDSIRQQALPAYSQHISVESTQFSNQGTMAGAALVKDAMYNGSLLIRLLQG
partner: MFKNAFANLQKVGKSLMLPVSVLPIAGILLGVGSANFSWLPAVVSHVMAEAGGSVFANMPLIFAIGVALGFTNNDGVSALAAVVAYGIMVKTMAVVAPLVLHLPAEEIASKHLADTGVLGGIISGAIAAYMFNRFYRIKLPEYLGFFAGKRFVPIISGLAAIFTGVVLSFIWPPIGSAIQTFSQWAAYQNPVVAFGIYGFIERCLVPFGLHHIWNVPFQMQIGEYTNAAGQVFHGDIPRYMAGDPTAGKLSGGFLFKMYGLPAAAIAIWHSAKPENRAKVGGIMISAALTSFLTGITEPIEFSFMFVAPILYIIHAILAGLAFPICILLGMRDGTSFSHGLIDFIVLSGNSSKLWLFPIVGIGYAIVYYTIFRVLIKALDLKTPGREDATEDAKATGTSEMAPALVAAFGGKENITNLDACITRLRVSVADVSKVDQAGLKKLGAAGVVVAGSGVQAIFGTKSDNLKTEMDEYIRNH

Variants of: B1
Conditions: with ptgcb_ecoli ptsG

effect of a mutation on the interaction | Variant
decreasing interaction strength | G406A
